Holding throughout (test): holdup assay
Common to all, as to design: key: below the threshold = too weak to quantify, mostly under pKd 3.1 to 4

Assay [1] concerns the target IL16_3, Q14005.
In assay [2] the target is DLG5_1, Q8TDM6.
The target in assay [3] is DLG2_3, Q15700.
For assay [4], the target named is Inadl_4, Q8NI35.
Assay [5] deals with T1, PDZD7_3, Q9H5P4.
T1 sequence (Q9H5P4 857-944, limits assumed, looked up): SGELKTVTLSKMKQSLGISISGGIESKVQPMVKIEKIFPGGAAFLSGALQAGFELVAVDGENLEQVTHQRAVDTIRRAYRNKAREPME

The target in assay [6] is T2, MPP7, Q5T2T1.
T2 sequence (Q5T2T1 134-230, limits assumed, looked up): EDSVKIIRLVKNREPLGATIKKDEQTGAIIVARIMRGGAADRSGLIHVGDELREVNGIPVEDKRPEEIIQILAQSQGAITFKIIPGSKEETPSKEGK

The target of assay [7] is IL16_1, Q14005.
Sequence of IL16_1, Q14005 (Q14005 210-306): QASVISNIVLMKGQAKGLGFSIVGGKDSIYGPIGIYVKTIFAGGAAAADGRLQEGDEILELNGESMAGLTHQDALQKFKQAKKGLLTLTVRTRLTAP
The target of assay [8] is T3, DLG3_3, Q92796.
T3 sequence (Q92796 374-475, limits assumed, looked up): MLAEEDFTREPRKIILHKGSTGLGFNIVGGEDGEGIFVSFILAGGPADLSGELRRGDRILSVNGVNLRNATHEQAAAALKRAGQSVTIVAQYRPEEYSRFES

For assay [9], the target named is T4, ARHGEF11, O15085.
T4 sequence (O15085 42-136, limits assumed, looked up): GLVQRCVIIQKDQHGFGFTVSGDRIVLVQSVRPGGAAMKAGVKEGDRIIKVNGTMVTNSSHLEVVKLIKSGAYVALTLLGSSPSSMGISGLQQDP

Assay [10] addresses T5, DFNB31_1, Q9P202.
T5 sequence (Q9P202 135-233, limits assumed, looked up): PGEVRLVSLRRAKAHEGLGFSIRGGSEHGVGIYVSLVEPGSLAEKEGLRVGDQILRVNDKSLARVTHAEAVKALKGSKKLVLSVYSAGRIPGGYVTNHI

Assay [11] addresses T6, APBA1_2, Q02410.
T6 sequence (Q02410 742-832, limits assumed, looked up): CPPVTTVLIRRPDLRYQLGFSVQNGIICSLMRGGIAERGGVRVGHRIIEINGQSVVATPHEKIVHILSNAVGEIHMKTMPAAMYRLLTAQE

For assay [12], the target named is GRID2IP_2, A4D2P6.
Sequence of GRID2IP_2, A4D2P6 (A4D2P6 272-370): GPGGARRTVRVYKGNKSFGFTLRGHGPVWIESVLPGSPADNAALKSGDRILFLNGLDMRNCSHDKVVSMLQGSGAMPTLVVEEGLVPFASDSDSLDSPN
Assay [13] addresses GRIP2_5, Q9C0E4.
In assay [14] the target is T7, GRIP1_4, Q9Y3R0.
T7 sequence (Q9Y3R0 467-571, limits assumed, looked up): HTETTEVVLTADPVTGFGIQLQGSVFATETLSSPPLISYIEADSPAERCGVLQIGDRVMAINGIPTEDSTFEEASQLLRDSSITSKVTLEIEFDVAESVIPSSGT

The target in assay [15] is T8, APBA1_1, Q02410.
T8 sequence (Q02410 651-752, limits assumed, looked up): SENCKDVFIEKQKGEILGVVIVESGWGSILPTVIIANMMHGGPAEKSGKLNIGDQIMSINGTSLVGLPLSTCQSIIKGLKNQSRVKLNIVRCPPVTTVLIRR

The target of assay [16] is T9, GRIP1_3, Q9Y3R0.
T9 sequence (Q9Y3R0 247-346, limits assumed, looked up): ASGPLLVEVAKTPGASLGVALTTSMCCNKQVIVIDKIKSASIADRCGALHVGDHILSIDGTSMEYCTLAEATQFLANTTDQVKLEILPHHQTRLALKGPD

For assay [17], the target named is T10, MPP6, Q9NZW5.
T10 sequence (Q9NZW5 125-219, limits assumed, looked up): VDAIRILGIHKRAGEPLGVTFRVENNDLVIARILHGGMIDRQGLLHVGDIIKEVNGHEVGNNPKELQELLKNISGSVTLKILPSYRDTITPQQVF

For assay [18], the target named is NHERF2_2, Q15599.
Sequence of NHERF2_2, Q15599 (Q15599 142-238): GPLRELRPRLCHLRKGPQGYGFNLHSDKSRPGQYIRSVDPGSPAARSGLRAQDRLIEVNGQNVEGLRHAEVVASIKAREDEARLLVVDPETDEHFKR
Assay [19] addresses PARD3_3, Q8TEW0.
The target in assay [20] is T11, GRIP1_2, Q9Y3R0.
T11 sequence (Q9Y3R0 145-248, limits assumed, looked up): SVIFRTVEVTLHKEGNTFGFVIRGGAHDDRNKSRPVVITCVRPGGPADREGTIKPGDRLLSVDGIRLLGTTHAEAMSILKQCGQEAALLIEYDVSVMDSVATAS

Assay [21] deals with T12, SNTG2, Q9NY99.
T12 sequence (Q9NY99 68-166, limits assumed, looked up): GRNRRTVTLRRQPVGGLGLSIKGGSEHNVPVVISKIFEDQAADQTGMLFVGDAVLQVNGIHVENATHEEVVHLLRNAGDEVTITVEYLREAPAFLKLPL

Assay [22] deals with T13, APBA2_2, Q99767.
T13 sequence (Q99767 654-744, limits assumed, looked up): T6 sequence (Q02410 742-832, limits assumed, looked up) with R10K, R15K, P59A, H65Q, I66A, A70S, Y84F, A89G

Assay [23] addresses MAST1, Q9Y2H9.
Assay [24] has as its target T14, HTRA4, P83105.
T14 sequence (P83105 378-476, limits assumed, looked up): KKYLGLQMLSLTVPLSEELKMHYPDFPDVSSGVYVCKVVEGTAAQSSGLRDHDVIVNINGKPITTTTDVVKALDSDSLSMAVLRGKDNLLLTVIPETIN

Where [25] appears, read: plain residues with an end cap or a label only (N-terminal biotin on a linker: ado-ado).
The mark [26] stands for this setting: plain residues with an end cap or a label only (N-terminal biotin on a linker: ahx).

Substitutions are numbered along the chain they refer to.

Sequence of DLG5_1, Q8TDM6 (Q8TDM6 617-713): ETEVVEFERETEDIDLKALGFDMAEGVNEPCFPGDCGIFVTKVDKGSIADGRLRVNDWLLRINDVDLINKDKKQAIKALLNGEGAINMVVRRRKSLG
Sequence of PARD3_3, Q8TEW0 (Q8TEW0 582-685): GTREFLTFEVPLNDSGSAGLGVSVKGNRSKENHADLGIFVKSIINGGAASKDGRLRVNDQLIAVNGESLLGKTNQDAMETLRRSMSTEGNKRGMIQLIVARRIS
Sequence of Inadl_4, Q8NI35 (Q8NI35 547-651): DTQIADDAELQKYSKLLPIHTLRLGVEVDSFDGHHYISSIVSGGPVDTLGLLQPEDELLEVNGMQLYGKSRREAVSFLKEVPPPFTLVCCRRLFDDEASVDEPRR
Sequence of IL16_3, Q14005 (Q14005 1107-1207): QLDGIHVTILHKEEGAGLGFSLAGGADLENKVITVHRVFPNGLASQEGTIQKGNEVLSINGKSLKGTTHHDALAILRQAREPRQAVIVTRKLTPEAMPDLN
Sequence of MAST1, Q9Y2H9 (Q9Y2H9 962-1065): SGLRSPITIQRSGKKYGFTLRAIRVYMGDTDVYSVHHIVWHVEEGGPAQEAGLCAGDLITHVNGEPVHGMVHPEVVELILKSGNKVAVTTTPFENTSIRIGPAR
Sequence of GRIP2_5, Q9C0E4 (Q9C0E4 544-642): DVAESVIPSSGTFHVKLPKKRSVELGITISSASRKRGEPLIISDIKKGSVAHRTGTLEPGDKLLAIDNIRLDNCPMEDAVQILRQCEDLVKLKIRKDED

For orientation: pKd means −log10 of the Kd, conventionally taken in molar units. On to PYSESDDDWC [CACNA1A, O00555], for which the pKd entry in assay [1] (setting [25]) was “below the threshold”; in assay [2] (setting [25]), “below the threshold”; in assay [3] (setting [25]), 3.7; in [4] (setting [25]) it was “below the threshold”; in assay [5] (setting [25]) it was “below the threshold”; in [6] (setting [25]), “below the threshold”. The pKd result in assay [7] (setting [25]) was “below the threshold”; in assay [8] (setting [25]) it was “below the threshold”; in assay [9] (setting [25]) it was 3.51; in [10] (setting [25]), “below the threshold”; in assay [11] (setting [25]), “below the threshold”; in [12] (setting [25]) it was “below the threshold”. Also, the pKd result in assay [13] (setting [25]) was “below the threshold”; in assay [14] (setting [25]), “below the threshold”; in assay [15] (setting [25]), 3.48; in assay [16] (setting [25]), “below the threshold”; in assay [17] (setting [25]), “below the threshold”; in assay [18] (setting [25]), 3.74. The pKd in assay [19] (setting [25]) is 3.89; in assay [20] (setting [25]), 3.62; in [21] (setting [25]), “below the threshold”; in assay [22] (setting [25]), “below the threshold”; in assay [23] (setting [25]), “below the threshold”; in [24] (setting [25]), “below the threshold”.

Take KKMLQRRTLL [OR8G1, Q15617]: the pKd result in assay [1] (setting [25]) was “below the threshold”; in assay [2] (setting [25]) it was “below the threshold”; in assay [3] (setting [25]), “below the threshold”; in assay [4] (setting [25]), “below the threshold”; in assay [5] (setting [25]), 4.61; in [6] (setting [25]), “below the threshold”. Moreover, the pKd entry in [7] (setting [25]) was “below the threshold”; in assay [8] (setting [25]), “below the threshold”; in assay [9] (setting [25]) it was 3.89; in [10] (setting [25]) it was “below the threshold”; in assay [11] (setting [25]), 3.52; in [12] (setting [25]), 5.09. Moreover, the pKd result in assay [13] (setting [25]) was “below the threshold”; in [14] (setting [25]), “below the threshold”; in [15] (setting [25]), “below the threshold”; in assay [16] (setting [25]) it was “below the threshold”; in assay [17] (setting [25]), “below the threshold”; in [18] (setting [25]), 3.61. The pKd entry was “below the threshold” in assay [19] (setting [25]); “below the threshold” in assay [20] (setting [25]); “below the threshold” in assay [21] (setting [25]); “below the threshold” in [22] (setting [25]); 4.41 in [23] (setting [25]); “below the threshold” in [24] (setting [25]).

With QSGLYESEEL [MYOT, Q9UBF9], the pKd result in [1] (setting [25]) is “below the threshold”; in assay [2] (setting [25]) it was “below the threshold”; in [3] (setting [25]) it was 3.88; in [4] (setting [25]), “below the threshold”; in assay [5] (setting [25]) it was 3.63; in assay [6] (setting [25]), “below the threshold”. Further, the pKd entry in assay [7] (setting [25]) was “below the threshold”; in assay [8] (setting [25]) it was “below the threshold”; in [9] (setting [25]) it was 4.38; in [10] (setting [25]) it was “below the threshold”; in assay [11] (setting [25]), “below the threshold”; in assay [12] (setting [25]) it was “below the threshold”. For the same molecule, the pKd entry was “below the threshold” in [13] (setting [25]); “below the threshold” in assay [14] (setting [25]); “below the threshold” in assay [15] (setting [25]); “below the threshold” in assay [16] (setting [25]); “below the threshold” in assay [17] (setting [25]); 4.04 in assay [18] (setting [25]). Besides, the pKd is 3.59 in [19] (setting [25]); “below the threshold” in [20] (setting [25]); “below the threshold” in assay [21] (setting [25]); “below the threshold” in [22] (setting [25]); “below the threshold” in [23] (setting [25]); 3.69 in assay [24] (setting [25]).

QNTDDVQTSF [ACE2, Q9BYF1]: the pKd entry in assay [1] (setting [26]) was “below the threshold”; in assay [2] (setting [26]) it was “below the threshold”; in [3] (setting [26]), “below the threshold”; in [4] (setting [26]), “below the threshold”; in assay [5] (setting [26]), 3.51; in [6] (setting [26]) it was “below the threshold”. The pKd result in assay [7] (setting [26]) was “below the threshold”; in assay [8] (setting [26]) it was “below the threshold”; in [9] (setting [26]) it was “below the threshold”; in assay [10] (setting [26]) it was 3.47; in assay [11] (setting [26]), “below the threshold”; in [12] (setting [26]) it was “below the threshold”. The pKd entry in assay [13] (setting [26]) is “below the threshold”; in assay [14] (setting [26]), “below the threshold”; in [15] (setting [26]), “below the threshold”; in assay [16] (setting [26]), “below the threshold”; in [17] (setting [26]) it was “below the threshold”; in assay [18] (setting [26]) it was 4.29. Moreover, the pKd entry in [19] (setting [26]) was “below the threshold”; in assay [20] (setting [26]), “below the threshold”; in [21] (setting [26]), “below the threshold”; in assay [22] (setting [26]) it was “below the threshold”; in assay [23] (setting [26]) it was 4.6; in [24] (setting [26]) it was “below the threshold”.

The values above are taken from PMC9482650, “Quantitative fragmentomics allow affinity mapping of interactomes” (Nature Communications, 2022).
